Experimental data reported in US20250197496A1.
Where a chain is given by its changes, count along the chain named. Each block holds one binder with its values, some of them ahead of it.

Tests used:
[1] = molecular target: cynomolgus ULBP2 (26-216) displayed on yeast (cynomolgus); assay: flow cytometry on yeast displaying ULBP2; unstained control 385
[2] = molecular target: T1, human ULBP2 (26-216) P41A on yeast (human) (UniProt Q9BZM5); assay: yeast display FACS, 1 nM
T1 sequence: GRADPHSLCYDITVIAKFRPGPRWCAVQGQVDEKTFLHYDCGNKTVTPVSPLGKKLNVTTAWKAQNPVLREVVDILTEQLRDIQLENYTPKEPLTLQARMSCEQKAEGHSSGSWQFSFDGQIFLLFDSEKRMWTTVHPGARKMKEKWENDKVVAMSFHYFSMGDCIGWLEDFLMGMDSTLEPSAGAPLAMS

[3] = molecular target: T2, human ULBP2 (26-216) R44A on yeast (human) (UniProt Q9BZM5); assay: yeast display FACS, 1 nM
T2 sequence: T1 sequence with A16P, R19A

[4] = molecular target: Cynomolgus ULBP2 (26-216) fused to hIgG1 Fc (cynomolgus; human); assay: SPR, biotinylated antigen on SA chip

- MFI [1]: 551
- Gate 1 Freq. of Total [2]: 0.052%
- Gate 2 Freq. of Total [2]: 0.32%
- Gate 3 Freq. of Total [2]: 2.61%
- Gate 1 Freq. of Total [3]: 0.19%
- Gate 2 Freq. of Total [3]: 0.8%
- Gate 3 Freq. of Total [3]: 1.58%
B1: A06 (antibody, V domains shown)
VH: EVQLVQSGAEVKKPGESLKISCKGSGYAFSTSWMNWVRQMPGKGLEWMGRIYPGDGDTNYNGNFKGQVTISADKSISTAYLQWSSLKASDTAMYYCARGGELRLEAMDSWGQGTLVTVSS
VL: EIVMTQSPATLSLSPGERITLSCSASSSIHSNYLHWYQQKPGQAPRLLIYRTSNLASGIPARFSGSGSGTDFTLTISSLQPEDFAVYYCQQGFSIPFTFGQGTKLEIK

- MFI [1]: 11700
- Gate 1 Freq. of Total [2]: 0.098%
- Gate 2 Freq. of Total [2]: 0.41%
- Gate 3 Freq. of Total [2]: 4.73%
- Kd [4]: 0.534 nM
- koff [4]: 0.00182 s⁻¹
- kon [4]: 3.41e+06 M⁻¹ s⁻¹
B2: E12 (antibody, V domains shown)
VH: QVQLVQSGAEVKKPGASVKVSCKASGYTFTNYDINWVRQAPGQGLEWMGWIYPGDGSTYYNEKFKGRVTMTRDTSTSTVYMELSSLRSEDTAVYYCARSGDYGLYYFDYWGQGTLVTVSS
VL: EIVLTQSPATLSLSPGERATLSCRASQSIGTSIHWYQQKPGQAPRLLIYFASESISGIPARFSGSGSGTDFTLTISSLEPEDFAVYYCQQSNSWPLYTFGGGTKVEIK
